Experimental data reported in the supplement of paper PMC10567573.
± gives the standard deviation.

Assay: protein stability index of a GFP-peptide fusion (GPS, HEK-293T) (PSI 1-6); higher = more stable
[1] = treatment: DMSO, c terminus: a fixed tail appended
[2] = treatment: MLN4924 1 uM, 8 h, c terminus: a fixed tail appended
[3] = treatment: DMSO, c terminus: native
[4] = treatment: MLN4924 1 uM, 8 h, c terminus: native
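Also: 24-mer peptide tiles fused after GFP, lentivirally expressed, FACS-sorted into six equal bins by GFP/DsRed ratio, decoded by Illumina sequencing, PSI is the read-weighted mean bin number.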

Sequence	protein stability index [1]	protein stability index [2]	protein stability index [3]	protein stability index [4]
HGPDLYPKFKKWCDDYFFIAHRGE [CPOX]	2 ± 0.15	2.1 ± 0.27	–	–
HGSGSSLVVIQQPSLDSRQRLDYE [SPRY1]	4.12 ± 0.28	3.99 ± 0.31	–	–
HHKTYDPTYSDFCQFRPPVRVNDG [VDR]	3.38 ± 0.29	3.28 ± 0.16	–	–
HIDPEIQDGSPTTSRRPSGTGTGP [PDLIM4]	5.26 ± 0.26	5.42 ± 0.26	–	–
HIIHVWEETGSRFHNCLIQLYCEK [VPS39]	2.44 ± 0.4	2.37 ± 0.36	–	–
HNYKEMRQLMKVVNEMCPNITRIY [CPXM2]	2.11 ± 0.37	2.17 ± 0.31	–	–
HPPSHWPLIKATVGLIRNLALCPA [CTNNB1]	2.65 ± 0.53	2.81 ± 0.88	–	–
HPVPLSFEPVKSFFKGLVEAVEST [TRIM14]	2.6 ± 0.41	2.26 ± 0.42	–	–
HPVTIGGKIVGSLCAIAGVLTIAL [KCNA3]	2.6 ± 0.42	2.05 ± 0.28	–	–
HQLLGLFPSTSYNARLQAMWGQSL [TNXB]	2.11 ± 0.35	2.08 ± 0.23	–	–
HSYNVTQRRPRVLSCLHSVCEQCL [RNF208]	2.87 ± 0.17	3.16 ± 0.33	–	–
HTETGEEVLRMCVAVKKKLQLYFW [VPS39]	2.8 ± 0.85	2.82 ± 0.33	–	–
HTVGVLFNNGAHMSLLPDKKTVHY [PLK2]	2.65 ± 0.33	2.66 ± 0.22	–	–
HVFSELWDLSEAWMQANYDPLSDS [ELOA2]	2.6 ± 0.32	2.63 ± 0.31	–	–
IALFTARLHHPHKSVQHVVLQALF [PTPN9]	2.59 ± 0.54	3.13 ± 0.72	–	–
IATLRVALPSVMRFCCCVAVIYLG [MCOLN1]	3.29 ± 0.55	3.15 ± 0.21	–	–
ICTNLCEALQNFFSLACSLMGPSR [M1AP]	2.33 ± 0.28	2.26 ± 0.1	–	–
IDKVRFLEQQNQVLETKWELLQQL [KRT71]	2.74 ± 0.1	2.73 ± 0.27	–	–
IDREVDLMMRGVKHHNLEGLRKRI [IQUB]	3.29 ± 0.32	3.62 ± 0.27	–	–
IEDDIRPEKQKRKPGLRRSPIKKV [MYBL2]	5.01 ± 0.25	4.83 ± 0.23	–	–
IEDLEVTCTWKLPTLAKFSPYLGQ [PRAME]	2.62 ± 0.32	2 ± 0.58	–	–
IEDTPLVPVSFIFIFTFVKKKKIG [PCDHGA10]	2.29 ± 0.55	3.12 ± 0.37	–	–

Sequence	protein stability index [1]	protein stability index [2]	protein stability index [3]	protein stability index [4]
IEELCQKREELCRQIQEEEDEKQR [SSNA1]	5.43 ± 0.1	5.52 ± 0.12	–	–
IEPYITNFFNQVLMLGKTSISDLS [PDS5B]	3.01 ± 0.42	2.91 ± 0.45	–	–
IETLIRDMLLSGSSFNWPYMAIQ [NR2F2]	–	–	3.02 ± 1.2	2.64 ± 0.41
IFEETLNILIYETPRGPDPALLEA [KCTD13]	2.47 ± 0.51	2.63 ± 0.28	–	–
IFFMAAFAFSNGYLASLCMCFGPK [SLC29A1]	2.42 ± 0.38	2.52 ± 0.34	–	–
IFSGAASLGYGTNVAATGISQYED [APBB1IP]	3.83 ± 0.24	3.67 ± 0.16	–	–
IHSCFSDVTCFLLPHPGLQVATSP [ATL3]	2.34 ± 0.7	2.29 ± 0.49	–	–
IIHVVKDQLIGQGIIVKDARLNGS [TENT5D]	2.2 ± 0.18	2.25 ± 0.72	–	–
IKDQGGAGEGLVRSANGFPYREDE [MAP2]	5.13 ± 0.3	5.18 ± 0.28	–	–
IKSDEECRDLVDEAKNYLLLPQER [KLHL20]	4.68 ± 0.14	4.64 ± 0.13	–	–
ILIASRDIAAGEELLYDYGDRSKA [KMT5A]	3.44 ± 0.45	3.64 ± 0.65	–	–
ILIIQGVLSDINLKKGESECQYYI [NET1]	2.73 ± 0.54	2.67 ± 1	–	–
ILIVDWDVHHGNGTQHMFEDDPSV [HDAC6]	2.18 ± 0.23	2.39 ± 0.21	–	–
ILKSQKERQCALRVFKARIYTNRY [FBXO39]	2.41 ± 0.35	2.46 ± 0.29	–	–
ILQDQEHIFAHRIYLATSSSKFYD [RHOBTB1]	2.15 ± 0.35	2.4 ± 0.16	–	–
ILQSPAFCEELESMIQEQFKKGKN [ADD1]	3.53 ± 0.16	3.76 ± 0.17	–	–
ILSACSPYFRAMFTGELAESRQTE [KLHL20]	2.06 ± 0.086	2.48 ± 0.33	–	–
ILTGCKNMLFQQNKDGIGEICLWG [ACSBG2]	3.01 ± 1.4	2.92 ± 0.44	–	–
ILTRSWEEVSTLNAQIPELKSDLE [CD207]	3.56 ± 0.28	3.78 ± 0.16	–	–
IREDRDRARLDSMVLLIMKLDQLD [DLC1]	2.35 ± 0.45	2.18 ± 0.32	–	–
IRESDPEQAPAPGEATAAPAPLCG [TBX6]	5.32 ± 0.53	5.31 ± 0.2	–	–
ISFNKTMTQLSSTLARCAKDILGF [PKD2L1]	2.96 ± 0.85	2.62 ± 0.56	–	–

Sequence	protein stability index [1]	protein stability index [2]	protein stability index [3]	protein stability index [4]
ISGGVHNGEYVPWLYCYDPVMDVW [KLHL14]	2.32 ± 0.33	2.59 ± 0.73	–	–
ISKSLELCNEISLSEIKDAPKVNA [DLC1]	4.12 ± 0.39	4.21 ± 0.066	–	–
ISSVGGEAMFCDFPKINHGILYDE [CFHR2]	3.38 ± 0.26	–	–	–
IVRRFLNICENTEGAIAVHCKAGL [CDC14A]	2.36 ± 0.39	2.11 ± 0.23	–	–
IVSEVQFVESSGGGSSAVGQFVSL [BRF1]	2.25 ± 0.23	2.23 ± 0.26	–	–
IVSRATGRCLEVEMSKDANFGLRL [GALNT9]	2.66 ± 0.76	2.72 ± 0.67	–	–
IVVIPGKVEEVSLPEQVDIIISEP [CARM1]	2.47 ± 0.45	2.16 ± 0.29	–	–
KADIGAPSGFKHVSHVGWDPQNGF [WAS]	3.2 ± 0.37	3.33 ± 0.089	–	–
KALEDFEDLCDRVFSDEDSELDN [FAM9B]	–	–	4.98 ± 0.16	5.17 ± 0.3
KATEPTETVQTWIELLTGETWNPF [GOLPH3L]	2.36 ± 0.13	2.5 ± 0.34	–	–
KCKAEHDQLLLNYAKKESDLNGAQ [LMNB1]	4.03 ± 0.38	4.01 ± 0.32	–	–
KDLFTQRQNSAPARMLSSNERDSS [CDC25A]	4.88 ± 0.23	4.84 ± 0.25	–	–
KDTRMAEEYCHKHYDRNKDGNKDV [VPS39]	4.68 ± 0.21	5.03 ± 0.23	–	–
KEIQYLKDLIEEVRKARGKKRVP [ATF4]	–	–	2.52 ± 0.47	2.33 ± 0.47
KELILDKVYTHPKWNTQTKARSYS [ZC2HC1C]	2.91 ± 0.44	3.44 ± 0.46	–	–
KERAAGGGAGSSEDDAQSRRDEQD [GOLPH3]	5.65 ± 0.35	5.67 ± 0.15	–	–
KGEVPKGSCEDEPMDSTMDDAVAG [ATE1]	5.48 ± 0.28	5.61 ± 0.17	–	–
KGFPGCKLGLHDNHWVPACHSFNR [FBXO34]	2.26 ± 0.69	2.48 ± 0.15	–	–
KGISSHSRSSLMPLRNDVDKRGET [SLC2A12]	5 ± 0.39	5.06 ± 0.22	–	–
KGKVLAQQGEYSEAIPILRAALKL [FKBP8]	2.37 ± 0.38	2.42 ± 0.56	–	–
KGNLLRHIKLHSGEKPFKCHLCNY [IKZF1]	2.37 ± 0.38	2.4 ± 0.23	–	–
